Data on 30 sequences can be found in the nanobody polyreactivity screen of Harvey et al. (2022).

A short description of the series: yeast display, Sf9 membrane polyspecificity reagent, FACS + sequencing; frameworks hold sequencing errors. The method, boiled down: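 Sorting gates, low and high (top ~1%), were placed on anti-HA fluorescence to track expression and on streptavidin fluorescence to track reagent binding. A clone's polyreactivity label is taken from the gate it came out of. The reagent was 10% biotinylated, detergent-solubilized Sf9 membrane, applied for 1 hour at 4 °C to galactose-induced yeast display cells.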
Take “QVQLVESGGGLVQAGGSLRLSCAASGSIFSVYAMGWYRQAPGKERELVAAISRSGGSTYYADSVKGRFTISRDNAKNTVYLQMNSLKPEDTAVYYCAARLAGRGSSSSRVVRTGGYWGQGTQVTVSS”: the “polyreactivity (PSR sort gate)” value is “high polyreactivity”.
For the sequence “QVQLVESGGGLVQAGGSLRLSCAASGSIFSVYAMGWYRQAPGKERELVAVIWRGGSTNYADSVKGRFTISRDNAKNTVYLQMNSLKPEVTALYYCNARTFYRKFWYQFVSSYGYDYWGQGTQVTVSS”, the “polyreactivity (PSR sort gate)” value is reported as “low polyreactivity”.
In the case of “QVQLVESGGGLVQAGGSLRLSCAASGSIFSVYVMGWYRQAPGKESELVAAISWSDRDTYYADSVKGRFTISRDYAKNTVDFQMNSLKPVDTAVYYGAAETFDYDVYIANGSGEYDYWGQVTQVTVSS” it was “high polyreactivity”; in that of “QVQLVESGGGLVQAGGSLRLSCAASGSIFSWYAMGWYRQAPGKERELVAAIDSGSKYYADSVKGRFTISRDNAKNTVYLQMNSLKPEDTAVYYCAVDYGYYYWEPWPSDYDMYSWGQGTQVTVSS”, “high polyreactivity”.
Next, “QVQLVESGGGLVQAGGSLRLSCAASGSIFSWYAMGWYRQAPGKERELVAAISWSSGSTYYADSVKGRFTISRDNAKNTVYLQMNSLKPEDTAVYYCAADATYLGWYELYYWGQGTQVTVSS”: “high polyreactivity”; “QVQLVESGGGLVQAGGSLRLSCAASGSIFSYNAMGGYRPAPGKARELVAAITLSDGGTYYADSVKGRFTISRDNAKNTVYLQMNSLKPEDTAVYYCATTYWLWITYSAYYYWGQGSQVTVSS”: “low polyreactivity”.
In the case of “QVQLVESGGGLVQAGGSLRLSCAASGSIFSYNAMGWYRKAPGKERELVAAIRASGGDTYYADSVKGRFTISRDNAKNTVYLQMNSLKPEDTAVYYCAARTYAHHYASHGYWGQGTQVTVSS” it was “low polyreactivity”; in that of “QVQLVESGGGLVQAGGSLRLSCAASGSIFSYNAMGWYRQAPGKERELVAAITSGDSTNYADSVKGRFTISRDNAKNTVYLQMNSLKPEDTAVYYCAADPVLPAFGYVGTSLGDYWGQGTQVTVSS”, “low polyreactivity”.
Consider “QVQLVESGGGLVQAGGSLRLSCAASGSIFSYTMGWYRQAPGKERELVAAITSGGITYYADSVKGRFTISRDNAKNTVYLQMNSLKPEDTAVYYCNKDVGFTRPLYYWGQGTQVTVSS”, for which the “polyreactivity (PSR sort gate)” value is “low polyreactivity”.
Regarding “QVQLVESGGGLVQAGGSLRLSCAASGSIFSYYAMGWSRQAPGKERELVAAISWGDDSTYYADSVKGRFTISRDNAKNTVYLQMNSLKPEDTAVYYCAADRVGWYRTFDYWGQGTQVTVSS”, the “polyreactivity (PSR sort gate)” value is listed as “low polyreactivity”.
Next, “QVQLVESGGGLVQAGGSLRLSCAASGSIFSYYAMGWSRQEHGKERELVAAITRSGSTNYADSVKGRFTISRDNAKNTVYLQMNSLKPEDTAVYYCARRHYSSRVIYVSSKGGYWGQGTQVTVSS”: “high polyreactivity”; “QVQLVESGGGLVQAGGSLRLSCAASGSIFSYYAMGWYRPAPGKERELVAAISWSGGSTYYADSVKGRFTISRDNAKNTVSLQMNSLIPADTAVYYCAAGVTYEKQTKYYYWGQGTQVTVSS”: “high polyreactivity”; “QVQLVESGGGLVQAGGSLRLSCAASGSIFSYYAMGWYRQAPGKERELVAAISGDSGRTYYADSVKGRFTISRDNAKNTVYLQMNSLKPEDTAVYYCNARVAYRYRTGYDYWGQGTQVTVSS”: “high polyreactivity”.
In the case of “QVQLVESGGGLVQAGGSLRLSCAASGSIFSYYAMGWYRQAPGKERELVAAISSGVSSTYYADSVKGRFTISRDNAKNTVYLQMNSLKPEYTAVYYCNADRPYRLNEYWGQGTQVTVSS”, the “polyreactivity (PSR sort gate)” value is listed as “high polyreactivity”.
With “QVQLVESGGGLVQAGGSLRLSCAASGSIFSYYAMGWYRQAPGKERELVAAISWTGGSTYYADSVKGRFTISRDNAKNTVYLQMNSLKPEDTAVYYCAADSPRSDRDSYDYWGQGTQVTVSS”, the “polyreactivity (PSR sort gate)” value is reported as “high polyreactivity”.
In the case of “QVQLVESGGGLVQAGGSLRLSCAASGSIFSYYAMGWYRQAPGKERELVAAITIRGGRTYYADSVKGRFTISRDNAKNSVYLQMNSLKPEDTAVYYCAAETGHKQHGYTYEVSRRCYGYWGQGTQVTVSS” it was “low polyreactivity”; in that of “QVQLVESGGGLVQAGGSLRLSCAASGSIFSYYAMGWYRQAPGKERELVAAITISGSSTYYADSVKGRFTISRDNAKNTVYLQMNSLKPEDTAVYYCNVVPLGSKNSVSHYYWGQGTQVTVSS”, “high polyreactivity”; in that of “QVQLVESGGGLVQAGGSLRLSCAASGSIFSYYAMGWYRQAPGKERELVAAITTNTGNTYYADSVKGRFTISRDNAKNTVYLQMNSLKPEDSAVYYCAKSGVADFYYTYYYWGQGTQVNVSS”, “low polyreactivity”.
In the case of “QVQLVESGGGLVQAGGSLRLSCAASGSIFSYYAMGWYRQAPGKERELVAAITTSGGSTYYADSVKGRFTISRDNAKNTVYLQMNSLKPEDTAVYYCNAGPYWWYYGEDYWGQGSQVTVSS” it was “low polyreactivity”; in that of “QVQLVESGGGLVQAGGSLRLSCAASGSIFSYYAMGWYRQAPGKERELVADITANDGSTYYADSVKGRFTISRDNAKNTVYLQMHSLKPEVTAVYYCAAASDLYGSIWIETGVTSDYWGQGTQVTVSS”, “high polyreactivity”.
For “QVQLVESGGGLVQAGGSLRLSCAASGSIFSYYAMGWYRQAPGKERELVADITVRGGSTYYADSVKGRFTISRDNAKNTVYLQMNSLIPEDTAVYYCAADWLDESFSYGPYYYWGQGTQVTVSS”, the “polyreactivity (PSR sort gate)” value was “low polyreactivity”.
Next, “QVQLVESGGGLVQAGGSLRLSCAASGSIFSYYTMGWYRQAPGKERELVAAISFRGTSTYYADSVKGRFTISRDNAKNTVYLQMNSLKPEDTAVYYCAKRALYYPTYPKYDTYNRYYWGQGTQVTVSS”: “high polyreactivity”; “QVQLVESGGGLVQAGGSLRLSCAASGSIFTAYALGWYRQAPGKERELVAAIDDSGDSTYYADSVKGRFTISRDNAKNTVYLQMHSLKPEDTAVNYCKAEYRVNKEYDYWGQGTQVTVSS”: “low polyreactivity”; “QVQLVESGGGLVQAGGSLRLSCAASGSIFTAYAMGWYRPAPGKERELVAAITSGGSTNYADSVKGRFTISRDNAKNTVYLQMNSLKPEDTAVYYCNADDYWLDSWSSVLWYDYWGQGTQVTVSS”: “low polyreactivity”.
As for “QVQLVESGGGLVQAGGSLRLSCAASGSIFTEYAMGWYRQAPGKERELVAAISWSGATTYYADSVKGRFTISRDNAKNTVYLQMNSLKPEDTAVYYCAARWANRSYEYWGQGTQVSVSS”, the “polyreactivity (PSR sort gate)” value is given as “low polyreactivity”.
For “QVQLVESGGGLVQAGGSLRLSCAASGSIFTFYAMGWYRQAPGKERELVARITRGVSTNYADSVKGRFTISRDNAKITVYLQLNSLKPEDTAVYYCAAESGNRYEYWGQGTQVTVSS”, the “polyreactivity (PSR sort gate)” value is given as “low polyreactivity”.
In the case of “QVQLVESGGGLVQAGGSLRLSCAASGSIFTGNAMGSYRQAPGKERELVAAISSSGARTYYADSVKGRFTISRDNAKNTVNLQMNSLKPEDTAVYYCNADSYTLYGLYDYWGQGTKVTVSS” it was “low polyreactivity”; in that of “QVQLVESGGGLVQAGGSLRLSCAASGSIFTHNAMGWYRQAPGKERVLVAAISSGGSTNYADSVKGRFTISRDNAKNTVYLQMNSLKPEDTAVYYCAKSIDGWYWRRRRYDYWGQGTQVTVSS”, “low polyreactivity”.
In the case of “QVQLVESGGGLVQAGGSLRLSCAASGSIFTHYAMGWYRQAPGTERELVAGITSSGGSTYADSVKGRFTISRDNAKNTVYLQMNSLKPEDTAVYYCAAEQLRSRLIEYDYWRQGTQVTVSS”, the “polyreactivity (PSR sort gate)” value is given as “low polyreactivity”.
In the case of “QVQLVESGGGLVQAGGSLRLSCAASGSIFTINAMGWYRQAPGKERELVAAISFSGGRTYYADSVKGRFTISRDNAKITVYLQMNSLKPEDTAVYYCAAPFYYYGVRFDYWGQGTQVTVSS” it was “high polyreactivity”.
